Experimental data reported in the supplement of paper PMC12042874.
± gives the uncertainty stated by the source.

Experiment: amyloid nucleation score (Sup35N fusion, yeast selection) (log enrichment); library NNK2; higher = more nucleation; inactive = no reads after selection
Procedure, shortened: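 Libraries of peptides of 20 random codons fused to Sup35N were expressed in psi-negative yeast and induced 24 hours with 100 μM copper sulfate. Selection was 7 days at 30°C on medium lacking adenine and uracil, and plasmid inserts were Illumina-sequenced before and after selection. Nucleation score is the DiMSum log enrichment of output over input reads, centred on the mode score of non-aggregating sequences, and sequences with under 100 input reads were left out.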

Compared with NCFRVFNSFSIFGAFRTMDR, SVLCEGTPEETTFLSDRLSG is lower in amyloid nucleation score: 5.22 ± 0.064 for the first, 1.09 ± 0.27 for the second.

First: PTRLTVKVMCLKPEPLVWKL
Second: AFWKVRLYRRPG
The amyloid nucleation score of the first is higher: 6.476 ± 0.042 for the first, 1.76 ± 0.24 for the second.

GGYSLWF and TLPVPPGCRFVEITV are within error of each other in amyloid nucleation score: 0.292 ± 0.23 for the first, 0.293 ± 0.53 for the second.

First: MSLWRVCCFSWPKKVYSNFR
Second: LLFQNLIRRLCSMCQFGGCV
The amyloid nucleation score of the first is higher: 1.2 ± 0.1 for the first, -0.531 ± 0.46 for the second.

First: NCYSRALYSPCSPFLLTN
Second: EPHSAI
The amyloid nucleation score of the first is lower: -1.73 ± 0.41 for the first, -0.1 ± 1 for the second.

First: CSVNNSSLCIVVVAWFCGLD
Second: FPMFSYTSMHYGH
The amyloid nucleation score of the first is lower: 0.711 ± 0.45 for the first, 1.83 ± 0.17 for the second.

HSLMQLYLVIFLAHFQSYGL and RNGVLTEARHLSVSGEERRV are within error of each other in amyloid nucleation score: 0.604 ± 0.44 for the first, -0.316 ± 0.8 for the second.

FSTHDIGSRKWARQYLYVVH and SNLLWAKSGPKAVWKPGRWD are within error of each other in amyloid nucleation score: 0.334 ± 0.31 for the first, 0.423 ± 0.41 for the second.

Compared with LTRRVGIFFHFG, DRWEPKLI is lower in amyloid nucleation score: 4.74 ± 0.05 for the first, -0.516 ± 0.23 for the second.

Compared with SHMHEEHIVEECTCSTPRRK, YFSWTWVVFNAFNEVRFWTW is lower in amyloid nucleation score: 1.32 ± 0.44 for the first, -1.59 ± 0.61 for the second.

Compared with YDGFDITYSYDLSVVFCVDR, LWGFMCFFW is lower in amyloid nucleation score: 0.046 ± 0.44 for the first, -1.41 ± 0.29 for the second.

SKGIDSEIHKRHRVRD and ERNLLRNSDDMD are within error of each other in amyloid nucleation score: -0.206 ± 0.54 for the first, -0.642 ± 1.1 for the second.

MKGEMF and THTLRGLQANRMISNNMDTI are within error of each other in amyloid nucleation score: -0.345 ± 0.28 for the first, -0.402 ± 0.61 for the second.

First: NNWYILPFAGFWDFGA
Second: TRGITCRLAYLQSLVNE
The amyloid nucleation score of the first is higher: 5.341 ± 0.03 for the first, 0.383 ± 0.43 for the second.

Compared with VSNYMIVKIQWFHIVVGPGL, CSPVLKSSFNALARKRMLAR is lower in amyloid nucleation score: 5.598 ± 0.031 for the first, 1.29 ± 0.35 for the second.

First: DHRRCDSMRTDC
Second: FCESCKWNL
The amyloid nucleation score of the first is lower: 0.098 ± 1 for the first, 1.29 ± 0.14 for the second.

First: YILAFVILAMEAWHRV
Second: RLVPISKNRVGMNWSASLSL
The amyloid nucleation score of the first is higher: 3.68 ± 0.086 for the first, 0.012 ± 0.15 for the second.

Going from RYRVRKCSLANWDEWTTIGC to CCVEPVVRDVEVKIRSVVMN, the amyloid nucleation score falls from 1.67 ± 0.19 to 0.123 ± 0.56.

First: CNYVQIMLS
Second: SFIHDWTNFHGSLGFDYGCD
The amyloid nucleation score of the first is higher: 2.81 ± 0.056 for the first, 0.112 ± 1.1 for the second.

DSRIGYTSYQRFTMKSNVLC and YHCVEYLGARL are within error of each other in amyloid nucleation score: 0.024 ± 0.44 for the first, 0.083 ± 0.63 for the second.

Compared with NACYIDFGRTAVSTVLAILY, MLMRNFSNSNLLAENFMQMR is lower in amyloid nucleation score: 3.41 ± 0.09 for the first, 0.138 ± 1.1 for the second.

LCHYGCMVRESNLEYCPSME and RTYSMGGIR are within error of each other in amyloid nucleation score: 0.381 ± 0.48 for the first, -0.849 ± 1.1 for the second.

First: MGQLDGKACSICRSLVIIVY
Second: CMREATFRLTSKFLSSFGL
The amyloid nucleation score of the first is lower: 2.23 ± 0.073 for the first, 4.04 ± 0.086 for the second.

First: HSNGKMNTTIHVVSELTVMR
Second: DDDNRNNLLWAMNADLGLRC
The amyloid nucleation score of the first is higher: 4.31 ± 0.058 for the first, 2.32 ± 0.091 for the second.

IPTSYSRPITIWGYR and GMDSFPFCMCRDCPYWGYDM are within error of each other in amyloid nucleation score: -1.3 ± 0.64 for the first, -0.745 ± 0.32 for the second.

First: TVSSIKFVVYSGLRWYELVY
Second: VINTEVCIEGGRQVRPAPRL
The amyloid nucleation score of the first is higher: 2.27 ± 0.1 for the first, 1 ± 0.41 for the second.

First: AIRGTECYWLAWVGLAVKRR
Second: MSILESIRTRTRRVKGYLSC
The amyloid nucleation score of the first is higher: 1.12 ± 0.23 for the first, 0.315 ± 0.36 for the second.

First: RLRMSMIISLINLRLCGLML
Second: DVRHQWFEMVRVVIICKPVN
The amyloid nucleation score of the first is higher: 1.03 ± 0.53 for the first, -0.149 ± 0.42 for the second.

CFEVFRFRRNRSLISPYQRM and GDYHSYGVVRSYFCATPSSG are within error of each other in amyloid nucleation score: 0.612 ± 0.62 for the first, 0.64 ± 0.44 for the second.

Going from NGFMVSFV to QSYRVPKLFMNAAE, the amyloid nucleation score rises from -1.39 ± 0.41 to 0.197 ± 0.57.

FEPWWCNSIMRLVVIEGEW and YPVCGCRLSRLVHNSTVDKV are within error of each other in amyloid nucleation score: 0.315 ± 0.46 for the first, 0.639 ± 0.46 for the second.

First: QLCAMKMDSRIFCVSCFTML
Second: DISELDVCFL
The amyloid nucleation score of the first is higher: 7.049 ± 0.056 for the first, -0.287 ± 0.33 for the second.

For LSDCE, the amyloid nucleation score was “inactive”.
For SFSNTAAYAKEYCRSYWVLV, the amyloid nucleation score was “inactive”.
In the case of NGIQGL, the amyloid nucleation score is reported as “inactive”.
For STLVDGGTGYMCYFFAWHQS, the amyloid nucleation score was “inactive”.
In the case of CLIVFIADTAAYIKVSMSSV, the amyloid nucleation score is reported as “inactive”.
With MFYPRSSFSWDFPTFGLSLP the amyloid nucleation score was “inactive”.
